One block for each molecule: values may come before it.
Experiments:
[1] = molecular target: N-terminally 3xFLAG-tagged G64D mutant ZIP13 (human); test: native gel or EMSA; blue native-PAGE of lysates of 293T cells expressing F-WT or F-G64D
[2] = molecular target: the molecule itself; test: as above

stoichiometry N [1]: 2
Molecule: N-terminally 3xFLAG-tagged G64D mutant ZIP13 (natural protein)

B1: N-terminally 3xFLAG-tagged wild-type ZIP13 (natural protein, human, UniProt Q96H72 1-371, looked up)
chain: MPGCPCPGCGMAGPRLLFLTALALELLERAGGSQPALRSRGTATACRLDNKESESWGALLSGERLDTWICSLLGSLMVGLSGVFPLLVIPLEMGTMLRSEAGAWRLKQLLSFALGGLLGNVFLHLLPEAWAYTCSASPGGEGQSLQQQQQLGLWVIAGILTFLALEKMFLDSKEEGTSQAPNKDPTAAAAALNGGHCLAQPAAEPGLGAVVRSIKVSGYLNLLANTIDNFTHGLAVAASFLVSKKIGLLTTMAILLHEIPHEVGDFAILLRAGFDRWSAAKLQLSTALGGLLGAGFAICTQSPKGVVGCSPAAEETAAWVLPFTSGGFLYIALVNVLPDLLEEEDPWRSLQQLLLLCAGIVVMVLFSLFVD
notes: ZIP13 (SLC39A13) zinc transporter, human, wild type; construct as previously described (Fukada et al, 2008); The 3xFLAG precedes the signal peptide; also called F-WT; F-ZIP13; source: 293T, transfected, in lysate; not shown: 3xFLAG, N-terminal, kept
stoichiometry N [2]: 2

Reference: article PMC4154131, “Molecular pathogenesis of Spondylocheirodysplastic Ehlers-Danlos syndrome caused by mutant ZIP13 proteins” (EMBO Molecular Medicine, 2014)
